According to the supplement of paper PMC7877785:
± gives the uncertainty stated by the source.

Assay: self-splicing fitness, log relative to wild type (ln ratio); higher = more splicing; Tetrahymena group I intron in knt gene, E. coli kanamycin selection, DiMSum; sequences stand for … in CUCUCU…GGAGGGAAAAGUUAUCAGGCAUGCACCUGGUAGCUAGUCUUUAAACCAAUAGAUUGCAUCGGUUUAAAAGGCAAGACCGUCAAAUUGCGGGAAAGGGGUCAACAGCCGUUCAGUACCAAGUCUCAGGGGAAACUUUGAGAUGGCCUUGCAAAGGGUAUGGUAAUAAGCUGACGGACAUGGUCCUAACCACGCAGCCAAGUCCUAAGUCAACAGAUCUUCUGUUGAUAUGGAUGCAGUUCACAGACUAAAUGUCGGUCGGGGAAGAUGUAUUCUUCUCAUAAGAUAUAGUCGGACCUCUCCUUAAUGGGAGCUAGCGGAUGAAGUGAUGCAACACUGGAGCCGCUGGGAACUAAUUUGUAUGCGAAAGUAUAUUGAUUAGUUUUGGAGUACUCGUGGUCG
Method in brief: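 Pooled colonies went to amplicon sequencing on an Illumina HiSeq 2500 after six replicate transformations. The plates were LB agar with 100 μg/mL carbenicillin, 50 μM IPTG and 0.2% rhamnose, with or without 25 μg/mL kanamycin, incubated overnight at 37°C or 30°C. The E. coli BL21(DE3) library had all eight P1ex-region intron nucleotides randomised, the intron placed in the knt kanamycin-resistance gene on pET-22b(+). DiMSum fitness is the error-weighted combination of replicate fold changes, kanamycin against none, normalised to wild type.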

Sequence | self-splicing fitness (ln) (30 °C) | self-splicing fitness (ln) (37 °C)
CUUAAGCAAUAUUACGUGUC | -4.45 ± 0.21 | -1.8 ± 0.15
CUUAAGCAAUAUUACGUGUG | -1.18 ± 0.061 | -0.604 ± 0.074
CUUCAGCAAUAUUACGAAGG | -2.06 ± 0.13 | -1.08 ± 0.18
CUUCAGCAAUAUUACGACUG | -0.803 ± 0.077 | -0.505 ± 0.092
CUUCAGCAAUAUUACGAGUG | -0.689 ± 0.051 | -0.602 ± 0.071
CUUCAGCAAUAUUACGAUUG | -0.473 ± 0.045 | 0.038 ± 0.063
CUUCAGCAAUAUUACGCAAG | -4.31 ± 0.26 | -1.81 ± 0.2
CUUCAGCAAUAUUACGCAGU | -3.96 ± 0.43 | -2.9 ± 0.33
CUUCAGCAAUAUUACGCCUG | -0.748 ± 0.074 | 0.268 ± 0.1
CUUCAGCAAUAUUACGCGAU | -2.85 ± 0.32 | -1.19 ± 0.38
CUUCAGCAAUAUUACGCUGA | -2.41 ± 0.17 | -2.56 ± 0.29
CUUCAGCAAUAUUACGCUGC | – | -1.65 ± 0.18
CUUCAGCAAUAUUACGGAUU | -2.13 ± 0.18 | -1.75 ± 0.16
CUUCAGCAAUAUUACGGCCG | -0.988 ± 0.16 | -0.154 ± 0.21
CUUCAGCAAUAUUACGGCUA | -3.01 ± 0.2 | -2.06 ± 0.24
CUUCAGCAAUAUUACGGGAG | -3.41 ± 0.24 | -2.52 ± 0.22
CUUCAGCAAUAUUACGGUCG | -0.131 ± 0.062 | -0.155 ± 0.093
CUUCAGCAAUAUUACGUAUA | -3.15 ± 0.27 | -1.98 ± 0.2
CUUCAGCAAUAUUACGUAUG | -0.871 ± 0.066 | -0.276 ± 0.074
CUUCAGCAAUAUUACGUCGA | -4.35 ± 0.46 | -2.95 ± 0.3
CUUCAGCAAUAUUACGUCUA | – | -2.38 ± 0.32
CUUCAGCAAUAUUACGUGGA | -3.13 ± 0.33 | -3.04 ± 0.28
CUUCAGCAAUAUUACGUUAA | -2.84 ± 0.24 | -3.51 ± 0.46
CUUCAGCAAUAUUACGUUUU | -1.52 ± 0.13 | -2.46 ± 0.26
CUUGAGCAAUAUUACGAAAG | -2.3 ± 0.25 | -3.32 ± 0.46

Sequence | self-splicing fitness (ln) (30 °C) | self-splicing fitness (ln) (37 °C)
CUUGAGCAAUAUUACGAAGA | -2.53 ± 0.27 | -3.17 ± 0.37
CUUGAGCAAUAUUACGACCG | -1.68 ± 0.19 | -1.16 ± 0.26
CUUGAGCAAUAUUACGAGAC | -2.12 ± 0.33 | –
CUUGAGCAAUAUUACGAUGA | -1.49 ± 0.23 | -2.03 ± 0.28
CUUGAGCAAUAUUACGAUGC | -3.25 ± 0.3 | -2.5 ± 0.41
CUUGAGCAAUAUUACGAUUG | -2.49 ± 0.13 | -1.32 ± 0.14
CUUGAGCAAUAUUACGCAAG | -2.37 ± 0.42 | –
CUUGAGCAAUAUUACGCAGU | -2.73 ± 0.23 | -2.64 ± 0.37
CUUGAGCAAUAUUACGCCGU | -3.24 ± 0.29 | –
CUUGAGCAAUAUUACGCCUC | – | -0.747 ± 0.3
CUUGAGCAAUAUUACGCGAC | -3.55 ± 0.28 | -0.595 ± 0.16
CUUGAGCAAUAUUACGCGGA | -2.71 ± 0.33 | -3.47 ± 0.31
CUUGAGCAAUAUUACGCUGG | -3.81 ± 0.25 | -2.17 ± 0.17
CUUGAGCAAUAUUACGGAAU | -2.85 ± 0.41 | -2.3 ± 0.48
CUUGAGCAAUAUUACGGGAA | -3.79 ± 0.42 | -2.73 ± 0.2
CUUGAGCAAUAUUACGGGCG | -2.02 ± 0.13 | -1.51 ± 0.11
CUUGAGCAAUAUUACGGGGA | -3.27 ± 0.2 | -2.87 ± 0.28
CUUGAGCAAUAUUACGGUCC | -0.924 ± 0.28 | –
CUUGAGCAAUAUUACGGUCU | -3.17 ± 0.29 | -3.61 ± 0.37
CUUGAGCAAUAUUACGGUGU | -3 ± 0.13 | -3.01 ± 0.18
CUUGAGCAAUAUUACGUAGA | -3.54 ± 0.21 | -3.91 ± 0.39
CUUGAGCAAUAUUACGUAUG | -1.21 ± 0.1 | -1.35 ± 0.14
CUUGAGCAAUAUUACGUCCG | -1.86 ± 0.19 | -0.79 ± 0.19
CUUGAGCAAUAUUACGUCGC | -2.54 ± 0.21 | -1.81 ± 0.19
CUUGAGCAAUAUUACGUCUC | -3.07 ± 0.24 | -2.19 ± 0.27

Sequence | self-splicing fitness (ln) (30 °C) | self-splicing fitness (ln) (37 °C)
CUUGAGCAAUAUUACGUCUG | -0.671 ± 0.086 | -0.657 ± 0.11
CUUGAGCAAUAUUACGUCUU | -4.1 ± 0.21 | -2.48 ± 0.2
CUUGAGCAAUAUUACGUGUU | – | -2.54 ± 0.23
CUUGAGCAAUAUUACGUUAG | -3.13 ± 0.2 | -1.11 ± 0.15
CUUGAGCAAUAUUACGUUCG | -3.19 ± 0.3 | -1.71 ± 0.21
CUUUAGCAAUAUUACGACAC | -3.75 ± 0.3 | -2.54 ± 0.27
CUUUAGCAAUAUUACGACAU | -3.762 ± 0.032 | -2.81 ± 0.043
CUUUAGCAAUAUUACGAGGA | -2.59 ± 0.32 | -3.02 ± 0.4
CUUUAGCAAUAUUACGCGUG | -1.89 ± 0.14 | -1.12 ± 0.17
CUUUAGCAAUAUUACGCUCU | -2.15 ± 0.22 | -1.3 ± 0.26
CUUUAGCAAUAUUACGGAAU | -1.75 ± 0.23 | -1.73 ± 0.36
CUUUAGCAAUAUUACGGACA | -2.76 ± 0.38 | -1.44 ± 0.28
CUUUAGCAAUAUUACGGGUC | -3.26 ± 0.17 | -1.32 ± 0.21
CUUUAGCAAUAUUACGUAAA | – | -2.24 ± 0.28
CUUUAGCAAUAUUACGUAGU | -3.52 ± 0.2 | -2.2 ± 0.22
CUUUAGCAAUAUUACGUGAG | -1.07 ± 0.11 | -0.581 ± 0.14
CUUUAGCAAUAUUACGUGUA | -3.34 ± 0.19 | -2.81 ± 0.24
CUUUAGCAAUAUUACGUUCU | -3.16 ± 0.25 | -2.78 ± 0.29
GAAAAGCAAUAUUACGAACG | -0.893 ± 0.083 | -0.364 ± 0.11
GAAAAGCAAUAUUACGAACU | -0.519 ± 0.1 | 0.532 ± 0.13
GAAAAGCAAUAUUACGAAGG | -3.27 ± 0.24 | -3.01 ± 0.37
GAAAAGCAAUAUUACGAAUC | -2.99 ± 0.21 | -1.04 ± 0.18
GAAAAGCAAUAUUACGACAG | -2.55 ± 0.19 | -2.27 ± 0.25
GAAAAGCAAUAUUACGACCG | -0.942 ± 0.14 | -0.33 ± 0.17
GAAAAGCAAUAUUACGACGG | -2.29 ± 0.17 | -2.4 ± 0.32

Sequence | self-splicing fitness (ln) (30 °C) | self-splicing fitness (ln) (37 °C)
GAAAAGCAAUAUUACGAGAG | -3.43 ± 0.28 | -2.48 ± 0.21
GAAAAGCAAUAUUACGAGAU | -3.26 ± 0.26 | -2.08 ± 0.28
GAAAAGCAAUAUUACGAGUU | -1.15 ± 0.073 | 0.164 ± 0.094
GAAAAGCAAUAUUACGCAAC | -2.92 ± 0.16 | -0.437 ± 0.16
GAAAAGCAAUAUUACGCCCG | -0.583 ± 0.14 | -0.75 ± 0.21
GAAAAGCAAUAUUACGCCGG | -1.34 ± 0.18 | -1.2 ± 0.17
GAAAAGCAAUAUUACGCCUA | -1.15 ± 0.11 | -0.681 ± 0.099
GAAAAGCAAUAUUACGCGCA | -0.195 ± 0.062 | -0.0235 ± 0.084
GAAAAGCAAUAUUACGGCCC | 0.0394 ± 0.14 | 0.473 ± 0.17
GAAAAGCAAUAUUACGGCUG | -0.13 ± 0.091 | 0.108 ± 0.14
GAAAAGCAAUAUUACGUAAG | -2.23 ± 0.11 | -0.733 ± 0.12
GAAAAGCAAUAUUACGUAGU | -2.02 ± 0.077 | -1.75 ± 0.13
GAAAAGCAAUAUUACGUGUA | -2.58 ± 0.11 | -0.56 ± 0.085
GAAAAGCAAUAUUACGUGUC | -3.41 ± 0.13 | -2.33 ± 0.14
GAAAAGCAAUAUUACGUUAC | -2.67 ± 0.12 | -1.84 ± 0.13
GAAAAGCAAUAUUACGUUCC | -3.72 ± 0.26 | -2.95 ± 0.24
GAAAAGCAAUAUUACGUUGG | -3.55 ± 0.19 | -2.16 ± 0.16
GAAAAGCAAUAUUACGUUUC | -2.95 ± 0.17 | -2.69 ± 0.25
GAACAGCAAUAUUACGACAA | -1.24 ± 0.13 | -0.239 ± 0.15
GAACAGCAAUAUUACGACCA | -0.754 ± 0.12 | -0.113 ± 0.12
GAACAGCAAUAUUACGACCU | -0.509 ± 0.099 | -0.0216 ± 0.13
GAACAGCAAUAUUACGACUC | 0.0151 ± 0.071 | -0.517 ± 0.082
GAACAGCAAUAUUACGAGCG | -1.94 ± 0.089 | -0.559 ± 0.1
